Measurements published in patent US20170247448A1 (INTRINSIC LIFESCIENCES, published 2017).
Ends that are not written are not given here.

Assays:
[1] = biological target: T1, Human hepcidin peptide (hepcidin-25) (human); assay: cell-based or functional assay
T1 peptide: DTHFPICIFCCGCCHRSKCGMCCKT

Mouse hepcidin-1 peptide = biological target: T2, Mouse hepcidin-1 peptide (mouse); assay: competition ELISA on MAb 583 coated plate, NT-biotin hepcidin-25 tracer
T2 construct: also called mouse hepcidin-25; murine hepcidin-1
T2 peptide: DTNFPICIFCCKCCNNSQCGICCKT
Source text: (§1) Competition was detected by streptavidin-HRP with the substrate tetramethylbenzidine; the color reaction was stopped with 0.5 N H₂SO₄ and the optical density of the solution read at 450 nm wavelength.
(§2) Binding of biotinylated hepcidin-25 analogs and detection of bound NT-biotin hepcidin-25 was used to detect relative degree of binding of each of the hepcidin peptides relative to hepcidin-25 (data not shown).

[2] = biological target: T3, Human hepcidin 10-25 peptide (human, also: oxidized peptide); assay: as above
T3 construct: also called hep 10-25; Hep 10-25
T3 peptide: CCGCCHRSKCGMCCKT
Source text: as §1, §2

[3] = biological target: T1, Human hepcidin peptide (hepcidin-25); assay: antibody titering ELISA, hepcidin 100 ng/well on plate, HRP-goat anti-mouse IgG; antibody 100 ng/well
K18-biotin hepcidin-25 [4] = biological target: T4, K18-biotin hepcidin-25 (human, K18-biotin (biotin on Lys 18)); assay: SPR (Biacore 3000, CM5 chip, 25 °C): biotinylated peptide captured on immobilised neutravidin, MAb 583 injected at 5 µg/ml (33.5 nM per the table)
T4 construct: also called K18-biotin hepcidin-25 tracer
T4 peptide: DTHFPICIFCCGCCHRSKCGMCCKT

NT-biotin hepcidin-25 [5] = biological target: T5, NT-biotin hepcidin-25 (human, NT-biotin (biotin at the N-terminus)); assay: as above
T5 construct: also called NT-biotin hepcidin-25 tracer; NT-Bio Tracer
T5 peptide: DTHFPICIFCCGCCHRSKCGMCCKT

K18-biotin hepcidin-25 [6] = biological target: T4, K18-biotin hepcidin-25; assay: SPR, Biacore, biotin peptide on neutravidin chip, MAb 583 at 5 µg/ml
NT-biotin hepcidin-25 [7] = biological target: T5, NT-biotin hepcidin-25; assay: as above
K24-biotin hepcidin-25 [8] = biological target: T6, K24-biotin hepcidin-25 (human, K24-biotin (biotin on Lys 24)); assay: SPR, Biacore 3000, biotin peptide on neutravidin CM5 chip, MAb 583 injected at 24 µg/ml, 25 C; hepcidin-25 biotinylated at K24 (K24-biotin) on the chip; MAb 583 at 24 µg/ml
T6 construct: also called K24-biotin hepcidin-25 tracer
T6 peptide: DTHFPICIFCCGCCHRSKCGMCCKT
Experimental: (§3) Biotinylated hepcidin peptides (NT-biotin-hepcidin-25, K18-biotin-hepcidin-25 and K24-biotin-hepcidin-25) were immobilized in flow cells 2-4 (one peptide species per flow cell) by injecting individual peptides at a concentration of 200 μg/ml at a flow rate of 5 μl/min, for 20 min.
(§4) After 3 minutes, injection was stopped and dissociation was followed for 6 min. Regeneration was performed by injecting 10 mM glycine HCl, pH 1.5 at a flow rate of 10 μl/min for 1 min.

K24-biotin hepcidin-25 [9] = biological target: T6, K24-biotin hepcidin-25; assay: SPR, Biacore 3000, biotin peptide on neutravidin CM5 chip, MAb 583 injected at 24 µg/ml, 25 C
Experimental: as §3, §4

K18-biotin hepcidin-25 [10] = biological target: T4, K18-biotin hepcidin-25; assay: as above
Experimental: as §3, §4

NT-biotin hepcidin-25 [11] = biological target: T5, NT-biotin hepcidin-25; assay: as above
Experimental: as §3, §4

[12] = biological target: T1, Human hepcidin peptide (hepcidin-25); assay: cell-based or functional assay
K18-biotin hepcidin-25 [13] = biological target: T4, K18-biotin hepcidin-25; assay: SPR, Biacore 3000, biotin peptide on neutravidin CM5 chip, MAb 583 injected at 24 µg/ml, 25 C; hepcidin-25 biotinylated at K18 (K18-biotin) on the chip; MAb 583 at 24 µg/ml
Experimental: as §3, §4

[14] = biological target: T1, Human hepcidin peptide (hepcidin-25); assay: antibody titering ELISA, hepcidin 100 ng/well on plate, HRP-goat anti-mouse IgG; antibody 50 ng/well
K18-biotin hepcidin-25 [15] = biological target: T4, K18-biotin hepcidin-25; assay: SPR (Biacore 3000, CM5 chip, 25 °C): biotinylated peptide captured on immobilised neutravidin, MAb 583 injected at 5 µg/ml (33.5 nM per the table); column head 'Kd (1/s)'
NT-biotin hepcidin-25 [16] = biological target: T5, NT-biotin hepcidin-25; assay: as above
[17] = biological target: T1, Human hepcidin peptide (hepcidin-25); assay: antibody titering ELISA, hepcidin 100 ng/well on plate, HRP-goat anti-mouse IgG; antibody 12.5 ng/well
NT-biotin hepcidin-25 [18] = biological target: T5, NT-biotin hepcidin-25; assay: SPR, Biacore 3000, biotin peptide on neutravidin CM5 chip, MAb 583 injected at 24 µg/ml, 25 C; hepcidin-25 biotinylated at the N-terminus (NT-biotin) on the chip; MAb 583 at 24 µg/ml
Experimental: as §3, §4

K18-biotin hepcidin-25 [19] = biological target: T4, K18-biotin hepcidin-25; assay: SPR (Biacore 3000, CM5 chip, 25 °C): biotinylated peptide captured on immobilised neutravidin, MAb 583 injected at 5 µg/ml (33.5 nM per the table); column head 'Ka (1/Ms)'
NT-biotin hepcidin-25 [20] = biological target: T5, NT-biotin hepcidin-25; assay: as above
[21] = biological target: T1, Human hepcidin peptide (hepcidin-25); assay: antibody titering ELISA, hepcidin 100 ng/well on plate, HRP-goat anti-mouse IgG; antibody 25 ng/well

B1: MAb 583 (antibody, V domains shown)
VH: QIQLVQSGPELKKPGETVKISCKASGYTFTNYGMNWVKQAPGKGLKWMGWINTYTGEPTYADDFKGRFAFSLETSASTAYLQINNLKNEDTATYFCTTYATSWYWGQG
VL: DIVLTQSPASLAVSLGQRATISCRASESVDSYGNSFMHWYQQKPGQPPKLLIYRASNLESGIPARFSGSGSRTDFTLTINPVEADDVATYYCQQSNEDLTFG
notes: Murine monoclonal, Protein A purified
With B1 the “EC50 (read off the curve); GFP fluorescence (% of untreated sample) of Fpn-GFP HEK cells, 37 nM hepcidin-25 present” value [1] was roughly 2 nM, the binding result (Mouse hepcidin-1 peptide) was “no binding” and the binding result [2] was “no binding (tested: up to 2000 ng/ml)”. For the same binder, the “OD 450 nm” value [3] was 4 OD450, the Ka (K18-biotin hepcidin-25 [4]) was 1.34e+11 M⁻¹ and the Kd (K18-biotin hepcidin-25 [4]) was 0.00745 nM. It also gave a Ka (NT-biotin hepcidin-25 [5]) of 5.47e+10 M⁻¹, a Kd (NT-biotin hepcidin-25 [5]) of 0.0183 nM and a Kd (K18-biotin hepcidin-25 [6]) of roughly 0.0075 nM. The Kd (NT-biotin hepcidin-25 [7]) was roughly 0.018 nM, the Kd (K24-biotin hepcidin-25 [8]) was 5.54 nM and the Ka (K24-biotin hepcidin-25 [9]) was 1.8e+08 M⁻¹. It also gave a Req (K24-biotin hepcidin-25 [9]) of 63.1 RU, a kobs (K24-biotin hepcidin-25 [9]) of 0.0086 s⁻¹ and a koff (K24-biotin hepcidin-25 [9]) of 0.000288 s⁻¹. For the same binder, the kon (K24-biotin hepcidin-25 [9]) was 52000 M⁻¹ s⁻¹, the Ka (K18-biotin hepcidin-25 [10]) was 1.14e+09 M⁻¹ and the Req (K18-biotin hepcidin-25 [10]) was 126 RU. The kobs (K18-biotin hepcidin-25 [10]) was 0.0102 s⁻¹, the koff (K18-biotin hepcidin-25 [10]) was 5.59e-05 s⁻¹ and the kon (K18-biotin hepcidin-25 [10]) was 63700 M⁻¹ s⁻¹. For the same binder, the Ka (NT-biotin hepcidin-25 [11]) was 1.94e+10 M⁻¹, the Req (NT-biotin hepcidin-25 [11]) was 78.8 RU and the kobs (NT-biotin hepcidin-25 [11]) was 0.00977 s⁻¹. For the same binder, the koff (NT-biotin hepcidin-25 [11]) was 3.15e-06 s⁻¹, the kon (NT-biotin hepcidin-25 [11]) was 61100 M⁻¹ s⁻¹ and the “IC50 (read off the curve); normalized ferritin (% of uninduced sample) of Fpn-GFP HEK cells, 37 nM hepcidin-25 present” value [12] was roughly 2 nM. The Kd (K18-biotin hepcidin-25 [13]) was 0.878 nM, the “OD 450 nm” value [14] was 4 OD450 and the koff (K18-biotin hepcidin-25 [15]) was 1.4e-05 s⁻¹. The koff (NT-biotin hepcidin-25 [16]) was 2.43e-05 s⁻¹, the “OD 450 nm” value [17] was 4 OD450 and the Kd (NT-biotin hepcidin-25 [18]) was 0.0516 nM. For the same binder, the kon (K18-biotin hepcidin-25 [19]) was 1.88e+06 M⁻¹ s⁻¹, the kon (NT-biotin hepcidin-25 [20]) was 1.33e+06 M⁻¹ s⁻¹ and the “OD 450 nm” value [21] was 4 OD450.
